Measured values taken from patent US20230242624A1 (NEURIMMUNE, published 2023).

T1: MERS-CoV Spike protein fragment (RBD, aa 367-606, His tag) (MERS-CoV, UniProt K9N5Q8 367-606)
T1 sequence: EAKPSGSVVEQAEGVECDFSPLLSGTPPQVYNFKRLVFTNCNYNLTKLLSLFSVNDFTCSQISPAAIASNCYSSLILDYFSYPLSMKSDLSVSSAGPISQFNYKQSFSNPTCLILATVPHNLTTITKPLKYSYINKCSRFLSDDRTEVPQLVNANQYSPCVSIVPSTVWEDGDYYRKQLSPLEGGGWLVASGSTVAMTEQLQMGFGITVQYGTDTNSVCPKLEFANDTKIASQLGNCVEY

B1: NI-607.532_D8 (antibody, V domains shown)
VH: EVQLVESGGGVVQPGRSLRLSCAASGFTFSSYGMHWVRQAPGKGLEWVAVISYDGSNKYYADSVKGRFTISRDNSKNTLYLQMNSLRAEDTAVYYCAKQGGGQYCSGGSCYSGYFDYWGQGTLVTVSS
VL: not shown
B2: NI-607.649_G7 (antibody, V domains shown)
VH: QVQLVESGGGLVQPGGSLRLSCAASGFTFSRYAMSWVRQAPGKGLEWVSAISGSGGSTYYADSVKGRFTISRDNSKNTLYLQINSLRAEDTAVYYCAKGVRWGVDYFDYWGQGTLVTVSS
VL: not shown
B3: NI-607.426_E2 (antibody, V domains shown)
VH: EVQLVESGGGLVQPGGSLRLSCAASGFTFSSYDMHWVRQATGKGLEWVSAIGTAGDTYYPGSVKGRFTISRENAKNSLYLQMNSLRAEDTAVYYCARASFLDYSWLYFDYWGQGTLVTVSS
VL: not shown
B4: NI-607.761_B7 (antibody, V domains shown)
VH: EVQLVESGGGVVQPGRSLRLSCAASGFTFTRYGMHWVRQAPGKGLEWVAVIWYDGNNKNYEDSVRGRFTISRDNSKNTLFLQMNSLRAEDTAVYYCARGRRGGYSYGLFDYWGQGILVTVSS
VL: AIRMTQSPSSLSASVGDRVTITCQASQDISNYLNWYQQKPGKAPKLLIYDASNLETGVPSRFSGSGSGTDFTFTISSLQPEDVATYSCQQYDNLPLTFGGGTKVEIK
B5: NI-607.529_G4 (antibody, V domains shown)
VH: QVQLQQWGAGLLKPSETLSLTCAVYGGSFSGYYWSWIRQPPGKGLEWIGEINHSGSTNYNPSLKSRVTISVDTSKNQFSLKLSSVTAADTAVYYCARASLYYSDSSGYSHPYYFDYWGQGTLVTVSS
VL: QPVLTQPPSVSGAPGQRVTISCTGSSSNIGAGYDVHWYQQLPGTAPKLLIYGNSNRPSGVPDRFSGSKSGMSASLAITGLQAEDEADYYCQSYDSSLSGWVFGGGTKLTVL
B6: NI-607.531_E3 (antibody, V domains shown)
VH: EVQLVESGGGVVQPGRSLRLSCAASGFTFSSYGMHWVRQAPGKGLEWVAVISYDGSNKYYADSVKGRFTISRDNSKNTLYLQMNSLRAEDTAVYYCAKQISGYNYPYYFDYWGQGTLVTVSS
VL: not shown
B7: NI-607.820_B7 (antibody, V domains shown)
VH: EVQLVESGGGLVQPGRSLRLSCAASGFTFDDFDMHWVRQAPGKGLEWVSGVTWNSGIIGYADSVKGRFTISRDNAKNSLYLQMNSLRAEDTALYYCAKEFYPRYGSGIRSHYFGMDVWGQGTTVTVSS
VL: QSVLTQSPSASGTPGQRVTISCSGSSSNVGSNAVNWYQQLPGTAPKLLIYSNNRRPSGVPNRFSGSKSGTSASLAISGLQSDDEADYYCAAWDDSLDGPTFGGGTKLTVL
B8: NI-607.791_B10 (antibody, V domains shown)
VH: QVQLQQWGAGLLKPSETLSRTCAVYGGSFSDYYWSWIRQPPGKGLEWIGEVNHRGVTNYNPSLKSRVTISIDTSKSQFSLELRSVTDADTALYFCARSPFWTIAARPFDYWGRGTLVTVSS
VL: EIVMTQSPGTLSLSPGERATLSCRASQSVISNYLAWYQQKPGQAPRFLIYAASTRARGIPDRFSGSGSGTDFTLTISRLEAEDFAVYYCQQYGNSPLTFGGGTKLEIK
B9: NI-607.820_B6 (antibody, V domains shown)
VH: EVQLQESGPGLVKPSETLSLTCTVSGGSVSSGSYYWSWIRQPPGKGLEWIGYIYYSGSTNYNPSLKSRVTISVDTSKNQFSLKVSSVTAADTAVYYCARDSIVVVPAARPLYYGMDVWGQGTTVTVSS
VL: not shown
B10: NI-607.426_D4 (antibody, V domains shown)
VH: not shown
VL: EIVLTQSPATLSLSPGERATLSCRASQSVSSYLAWYQQKPGQAPRLLIYDASNRATGIPARFSGSGSGTDFTLTISSLEPEDFAVYYCQQRSNWPPVTFGQGTRLEIK
B11: NI-607.531_D8 (antibody, V domains shown)
VH: EVQLVESGGGLVQPGRSLRLSCAASGFIFDDYAMHWVRQAPGKGLEWVSGISWNSDSIGYADSVKGRFTISRDNAKNSLYLQMNSLRAEDTALYYCAKGSRSDWSNPSDYWGQGTLVTVSS
VL: SYELTQPPSVSVAPGKTARITCGGNNIGSKSVHWYQQKPGQAPVLVVYDDSDRPSGIPERFSGSNSGNTATLTISRVEAGDEADYYCQVWDSSSDPVVFGGGTKLTVL
B12: NI-607.275_C5 (antibody, V domains shown)
VH: QVQLVESGGGLVQPGGSLRLSCAASGFTVSSNYMSWVRQAPGKGLEWVSVIYSGGSTYYADSVKGRFTISRDNSKNTLYLQMNSLRAEDTAVYYCARDFGDYYFDYWGQGTLVTVSS
VL: not shown
B13: NI-607.274_E5 (antibody, V domains shown)
VH: EVQLVESGGGMVQPGRSLRLSCAGSGFTFSTHGMHWVRQAPGKGLEWITGITYDGSDEFYADSVKGRFTIARDNSKNMLYLQMNSLRAEDTAVYFCAKDLEWLTNYVDHWGQGTLVTVSS
VL: DIVMTQSPGTLSVSPGERATLSCRASQSVNYNLAWYQQKPGQAPRLLIFDASTRATGIPARFTGSGSGTEFTLTISSLQSEDFAVYYCQQSNAWLTFGGGTKLEIK
B14: NI-607.532_D4 (antibody, V domains shown)
VH: QVQLVQSGAEVKRPGASVKVSCKASGYHFTDYYIHWVRQAPGQGLEWMGWINPNSGGTNYAQKFQGRVTMTRDTSISTAYMELSRLRSDDTAVYYCARVYYYDSSSFADYWGQGTLVTVSS
VL: not shown
notes: also called NI-607.532_D4C5
B15: NI-607.532_C8 (antibody, V domains shown)
VH: QVQLVESGGGLVKPGRSLRLSCTASGFTFGDYAMSWFRQAPGKGLEWVGFIRSKAYGGTTEYAASVKGRFSISRDDSKSIAYLQMNSLKTEDTAVYYCTRGWIVVVIEDAFDIWGQGTMVTVSS
VL: not shown

target: T2, SARS-CoV-2-S1 (RBD)-His protein (Trenzyme) (SARS-CoV-2, UniProt P0DTC2 319-541); assay: direct ELISA on coated RBD-His

Compared with B1, B2 is 4.7-fold higher in EC50: 0.0051 nM for the first, 0.024 nM for the second.

Going from B3 to B4, the EC50 falls from 0.03 nM to 0.001 nM (30-fold).

B5 and B6 are within 1.5-fold of each other in EC50: 0.026 nM for the first, 0.02 nM for the second.

B7 and B8 are within 1.5-fold of each other in EC50: 0.082 nM for the first, 0.062 nM for the second.

B9 and B10 are within 1.5-fold of each other in EC50: 0.029 nM for the first, 0.033 nM for the second.

Compared with B11, B12 is 4.4-fold higher in EC50: 0.0045 nM for the first, 0.02 nM for the second.

Compared with B13, B14 is 2.7-fold lower in EC50: 0.015 nM for the first, 0.0055 nM for the second. The second is the more potent here.

target: T2, SARS-CoV-2-S1 (RBD)-His protein …; assay: iQue flow cytometry, antigen-coated beads

Going from B1 to B2, the EC50 falls from 14.4 nM to 5.7 nM (2.5-fold).

Compared with B3, B4 is 4.7-fold lower in EC50: 2.06 nM for the first, 0.44 nM for the second. The second is the more potent here.

B5 and B6 are within 1.5-fold of each other in EC50: 1.3 nM for the first, 1.4 nM for the second.

Compared with B7, B8 is 1.5-fold higher in EC50: 9 nM for the first, 13.7 nM for the second. The first is the more potent here.

Going from B9 to B10, the EC50 falls from 2.4 nM to 0.76 nM (3.2-fold). The second is the more potent here.

B11 and B12 are within 1.5-fold of each other in EC50: 1.4 nM for the first, 1.5 nM for the second.

Compared with B13, B14 is 2.6-fold higher in EC50: 0.39 nM for the first, 1 nM for the second.

target: recombinant SARS-CoV Spike protein (RBD, His tag) (SARS-CoV, UniProt P59594 306-527); assay: iQue flow cytometry, antigen-coated beads

B1 and B2 are within 1.5-fold of each other in EC50: 32 nM for the first, 22.2 nM for the second.

Compared with B4, B5 is 20-fold lower in EC50: 200 nM for the first, 10 nM for the second. The second is the more potent here.

First: B6
Second: B7
The EC50 of the first is 310-fold lower: 2.6 nM for the first, 800 nM for the second. The first is the more potent here.

Going from B8 to B9, the EC50 falls from 400 nM to 60.2 nM (6.6-fold). The second is the more potent here.

B10 and B13 are within 1.5-fold of each other in EC50: 1000 nM for the first, 900 nM for the second.

Going from B15 to B14, the EC50 rises from 400 nM to 1000 nM (2.5-fold).

target: T1, MERS-CoV Spike protein fragment (RBD, …); assay: iQue flow cytometry, antigen-coated beads

B1 and B2 are within 1.5-fold of each other in EC50: 1000 nM for the first, 800 nM for the second.

Going from B3 to B4, the EC50 falls from 600 nM to 200 nM (3-fold). The second is the more potent here.

B5 and B6 are the same in EC50: 1000 nM for the first, 1000 nM for the second.

First: B7
Second: B8
The EC50 of the first is 2-fold higher: 800 nM for the first, 400 nM for the second. The second is the more potent here.

B9 and B10 are the same in EC50: 1000 nM for the first, 1000 nM for the second.

B11 and B12 are within 1.5-fold of each other in EC50: 1000 nM for the first, 800 nM for the second.

First: B13
Second: B15
The EC50 of the first is 2.2-fold higher: 900 nM for the first, 400 nM for the second.

Work on B14 yielded an EC50 of 1000 nM.

target: T3, BSA (Sigma-Aldrich) (bovine, UniProt P02769 25-607); assay: direct ELISA on coated BSA
T3 construct: also called bovine serum albumin; BSA control

B3: no binding (tested: 400 nM).
B4: no binding (tested: 400 nM).
B5: no binding (tested: 400 nM).
B6: no binding (tested: 400 nM).
B7: no binding (tested: 400 nM).
B8: no binding (tested: 400 nM).
B9: no binding (tested: 400 nM).
B10: no binding (tested: 400 nM).
B11: no binding (tested: 400 nM).
B12: no binding (tested: 400 nM).
B13: no binding (tested: 400 nM).
B15: no binding (tested: 400 nM).

target: SARS-CoV-2 Spike (S) protein on vesicular stomatitis virus (VSV) pseudoviruses (SARS-CoV-2, UniProt P0DTC2 14-1273); assay: cell-based or functional assay

B2 and B5 cannot be ordered by “IC50, pseudovirus entry assay (luciferase, HEK 293T-ACE2 cells)” value: greater than 100 µg/mL for the first, greater than 100 µg/mL for the second.

In the case of B11, the “IC50, pseudovirus entry assay (luciferase, HEK 293T-ACE2 cells)” value is reported as greater than 100 µg/mL.

target: T2, SARS-CoV-2-S1 (RBD)-His protein …; assay: competition ELISA, RBD binding to coated ACE2

Compared with B3, B4 is 5.2-fold higher in IC50: 10.7 nM for the first, 56 nM for the second. The first is the more potent here.

First: B10
Second: B12
The IC50 of the first is 1.5-fold lower: 24.4 nM for the first, 36.8 nM for the second.

For B13, the IC50 was 12.6 nM.
